Experiments:
[1] = target: T1, B7-H3 IgV2 (B7-H3 partial protein, on transfected NIH-3T3 cells) (human, UniProt Q5ZPR3 245-534); assay: flow cytometry on NIH-3T3 cells transfected with the B7-H3 IgV2 expression vector; fluorescein anti-mouse IgG secondary; FL1 Log histogram
T1 construct: expressed on cells from pFLAG-myc-CMV-19-DEST; leader or tag from the vector not described
T1 sequence: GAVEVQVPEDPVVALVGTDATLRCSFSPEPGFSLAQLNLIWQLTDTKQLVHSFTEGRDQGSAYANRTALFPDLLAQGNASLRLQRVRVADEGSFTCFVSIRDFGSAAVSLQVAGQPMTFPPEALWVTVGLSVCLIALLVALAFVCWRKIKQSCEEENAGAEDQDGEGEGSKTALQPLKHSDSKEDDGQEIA
Description: (§1) The binding specificity, for B7-H3, of the antibody produced by the hybridoma which immunoprecipitated the B7-H3 variant 1 identified by MS was confirmed by a flow cytometric method. The cell suspension prepared in Example 3)-2 was centrifuged, and the supernatant was removed. Then, the hybridoma culture supernatant was added to the NIH-3T3 cells transfected with each vector to suspend the cells, and the cells were left to stand at 4° C. for 1 hour.
(§2) It was examined as to which domain of B7-H3 the M30 binds by a flow cytometric method in the same manner as in Example 3)-3. The NIH-3T3 cells transfected with each of the expression vectors for B7-H3 partial proteins prepared in Example 1)-1-3 were used.

[2] = target: T2, CD86 (B7 family protein, on transfected 293T cells) (Homo sapiens (Human), UniProt P42081 24-329); assay: flow cytometry on transfected 293T cells
T2 sequence: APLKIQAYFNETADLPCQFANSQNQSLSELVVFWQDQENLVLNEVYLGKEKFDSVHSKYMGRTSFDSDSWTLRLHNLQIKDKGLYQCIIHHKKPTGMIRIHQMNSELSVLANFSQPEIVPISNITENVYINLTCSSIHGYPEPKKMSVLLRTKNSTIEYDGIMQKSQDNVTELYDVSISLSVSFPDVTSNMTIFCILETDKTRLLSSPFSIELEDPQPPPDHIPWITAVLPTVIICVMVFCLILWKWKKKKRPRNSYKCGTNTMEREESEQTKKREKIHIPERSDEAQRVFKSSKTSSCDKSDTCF

[3] = target: B7-H1 (B7 family protein, on transfected 293T cells) (Homo sapiens (Human), UniProt Q9NZQ7 19-290); assay: flow cytometry on transfected 293T cells
[4] = target: T3, B7-H4 (B7 family protein, on transfected 293T cells) (Homo sapiens (Human), UniProt Q7Z7D3 25-282); assay: flow cytometry on transfected 293T cells
T3 sequence: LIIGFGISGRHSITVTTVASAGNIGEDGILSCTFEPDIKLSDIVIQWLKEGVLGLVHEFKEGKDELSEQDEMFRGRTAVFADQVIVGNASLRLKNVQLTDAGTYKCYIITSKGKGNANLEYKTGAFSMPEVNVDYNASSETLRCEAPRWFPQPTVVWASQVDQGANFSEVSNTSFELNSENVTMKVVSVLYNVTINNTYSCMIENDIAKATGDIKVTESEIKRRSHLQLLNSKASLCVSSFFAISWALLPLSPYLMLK

[5] = target: T4, B7RP-1 (B7 family protein, on transfected 293T cells) (Homo sapiens (Human), UniProt O75144 19-302); assay: flow cytometry on transfected 293T cells
T4 sequence: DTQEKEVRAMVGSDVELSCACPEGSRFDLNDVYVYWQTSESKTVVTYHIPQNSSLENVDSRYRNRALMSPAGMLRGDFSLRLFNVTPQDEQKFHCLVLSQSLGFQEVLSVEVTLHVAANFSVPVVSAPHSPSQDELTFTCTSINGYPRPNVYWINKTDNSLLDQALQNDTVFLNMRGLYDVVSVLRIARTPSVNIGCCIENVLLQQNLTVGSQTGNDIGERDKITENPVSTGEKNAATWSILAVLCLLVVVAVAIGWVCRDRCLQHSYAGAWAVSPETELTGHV

[6] = target: T5, CD80 (B7 family protein, on transfected 293T cells) (Homo sapiens (Human), UniProt P33681 35-288); assay: flow cytometry on transfected 293T cells
T5 sequence: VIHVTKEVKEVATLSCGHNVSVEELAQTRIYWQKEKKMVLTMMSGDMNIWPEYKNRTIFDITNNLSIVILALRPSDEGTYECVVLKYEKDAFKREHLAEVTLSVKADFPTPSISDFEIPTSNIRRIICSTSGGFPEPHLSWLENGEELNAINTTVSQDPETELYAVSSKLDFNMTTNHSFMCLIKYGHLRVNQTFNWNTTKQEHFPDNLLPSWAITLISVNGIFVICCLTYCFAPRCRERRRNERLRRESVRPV

[7] = target: T6, extracellular domain polypeptide of a recombinant B7-H3 variant 2 antigen (R&D Systems, Inc., #2318-B3-050/CF) (human, UniProt Q5ZPR3 29-466); assay: SPR, antibody captured on immobilized anti-mouse IgG, B7-H3 variant 2 extracellular domain as analyte; M30 mouse antibody, captured on anti-mouse IgG
T6 construct: Bought recombinant protein; also called recombinant B7-H3 antigen; B7-H3 antigen
T6 sequence: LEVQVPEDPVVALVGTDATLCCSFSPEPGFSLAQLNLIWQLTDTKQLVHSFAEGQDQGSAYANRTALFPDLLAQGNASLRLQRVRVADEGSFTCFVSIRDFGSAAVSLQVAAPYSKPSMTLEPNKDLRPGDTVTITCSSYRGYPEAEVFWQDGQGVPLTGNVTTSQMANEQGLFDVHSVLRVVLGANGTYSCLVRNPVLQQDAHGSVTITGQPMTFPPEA
Description: The affinity between the M30 antibody or the cM30 antibody and the B7-H3 antigen was measured by a surface plasmon resonance (SPR) device (GE Healthcare Corporation). According to a common procedure, an anti-mouse IgG or an anti-human IgG antibody was immobilized on a sensor chip, and then, the M30 antibody sample or the cM30 antibody was bound thereto. Thereafter, an extracellular domain polypeptide of a recombinant B7-H3 variant 2 antigen (manufactured by R&D Systems, Inc., #2318-B3-050/CF) was added thereto at different concentrations, and the amount of the antigen bound to the antibody in a running buffer (phosphate buffer, 0.05% SP20) was measured over time. The measured amount was analyzed with a dedicated software (BIAevaluation Version 4.1, GE Healthcare Corporation) and a dissociation constant was calculated.

[8] = target: T7, B7-H3 IgV1 (B7-H3 partial protein, on transfected NIH-3T3 cells) (human, UniProt Q5ZPR3 27-534); assay: flow cytometry on NIH-3T3 cells transfected with the B7-H3 IgV1 expression vector; fluorescein anti-mouse IgG secondary; FL1 Log histogram
T7 construct: expressed on cells from pFLAG-myc-CMV-19-DEST; leader or tag from the vector not described
T7 sequence: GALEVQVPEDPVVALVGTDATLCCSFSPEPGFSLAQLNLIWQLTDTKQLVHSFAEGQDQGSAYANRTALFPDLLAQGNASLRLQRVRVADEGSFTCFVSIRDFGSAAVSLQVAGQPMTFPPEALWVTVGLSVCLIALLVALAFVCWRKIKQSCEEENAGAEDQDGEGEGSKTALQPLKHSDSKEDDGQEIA
Description: as §1, §2

[9] = target: T6, extracellular domain polypeptide of a …; assay: competition ELISA on plate-coated B7-H3 variant 2 extracellular domain polypeptide; competitor biotinylated M30 (bM30, 5 ug/ml), detected with streptavidin-HRP, OD 450 nm
Description: Each of the extracellular domain polypeptide of the B7-H3 variant 1 (manufactured by R&D Systems, Inc., #1949-B3-050/CF) and the extracellular domain polypeptide of the B7-H3 variant (manufactured by R&D Systems, Inc., #2318-B3-050/CF) was diluted to 0.5 μg/ml with a coating buffer and the resulting solution was dispensed at 100 μL/well in an immunoplate (manufactured by Nunc, Inc., #442404). Then, the plate was left to stand overnight at 4° C., whereby the protein was adsorbed to the plate. On the next day, an assay diluent was dispensed at 200 μL/well, and the plate was left to stand at room temperature for 4 hours.

Sequence of B7-H1 (B7 family protein, on transfected 293T cells) (Q9NZQ7 19-290 limits assumed): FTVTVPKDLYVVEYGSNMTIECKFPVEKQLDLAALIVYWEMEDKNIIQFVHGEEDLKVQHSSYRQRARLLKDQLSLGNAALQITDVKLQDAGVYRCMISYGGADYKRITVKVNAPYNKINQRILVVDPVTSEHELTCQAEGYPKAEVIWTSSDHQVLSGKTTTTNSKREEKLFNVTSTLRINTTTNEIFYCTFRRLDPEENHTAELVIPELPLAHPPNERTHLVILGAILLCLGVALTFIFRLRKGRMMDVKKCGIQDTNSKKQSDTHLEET

- binding result [1]: no binding
- binding result [2]: no binding
- binding result [3]: no binding
- binding result [4]: no binding
- binding result [5]: no binding
- binding result [6]: no binding
- Kd [7]: 5.89 nM
- binding result [8]: no binding
- IC50 (read off the curve) [9]: ~0.5 µg/mL
B1: M30 antibody (mouse anti-human B7-H3 monoclonal antibody produced by B7-H3 hybridoma M30) (antibody, mouse IgG2a, kappa)
heavy: EVQLQQSGPELVKPGASVKMSCKASGYTFTNYVMHWVKQKPGQGLEWIGYINPYNDDVKYNEKFKGKATQTSDKSSSTAYMELSSLTSEDSAVYYCARWGYYGSPLYYFDYWGQGTTLTVSSAKTTAPSVYPLAPVCGDTTGSSVTLGCLVKGYFPEPVTLTWNSGSLSSGVHTFPAVLQSDLYTLSSSVTVTSSTWPSQSITCNVAHPASSTKVDKKIEPRGPTIKPCPPCKCPAPNLLGGPSVFIFPPKIKDVLMISLSPIVTCVVVDVSEDDPDVQISWFVNNVEVHTAQTQTHREDYNSTLRVVSALPIQHQDWMSGKEFKCKVNNKDLPAPIERTISKPKGSVRAPQVYVLPPPEEEMTKKQVTLTCMVTDFMPEDIYVEWTNNGKTELNYKNTEPVLDSDGSYFMYSKLRVEKKNWVERNSYSCSVVHEGLHNHHTTKSFSRTPGK
light: QIVLSQSPTILSASPGEKVTMTCRASSRLIYMHWYQQKPGSSPKPWIYATSNLASGVPARFSGSGSGTSYSLTISRVEAEDAATYYCQQWNSNPPTFGTGTKLELKRADAAPTVSIFPPSSEQLTSGGASVVCFLNNFYPKDINVKWKIDGSERQNGVLNSWTDQDSKDSTYSMSSTLTLTKDEYERHNSYTCEATHKTSTSPIVKSFNRNEC
notes: Mouse IgG2a, kappa; Used as hybridoma culture supernatant in the flow cytometry and as purified antibody in SPR and ELISA; also called mouse antibody M30
